A short description of data set [1]: folding stability dG unfold (combined trypsin and chymotrypsin); higher = more stable. In a few lines:
(§1)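 Digests were run with trypsin and chymotrypsin at 11 concentrations in threefold dilutions, plus a no-protease condition, on designed mini-proteins in a PA-tagged cDNA display construct. The mini-proteins were under 80 residues, had no cysteine, and were kept only when AlphaFold2 dimer inter-PAE was above 15. After sequencing, Bayesian fitting of the counts gave K50, from which unfolding free energy was derived against a sequence-predicted unfolded-state K50 and a shared folded-state K50, per protease or combined.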

A short description of data set [2]: folding stability dG unfold from chymotrypsin proteolysis; higher = more stable. In a few lines:
as §1

Data set [3] can be described thus: folding stability dG unfold from trypsin proteolysis; higher = more stable. Put shortly: as §1

± gives the half width of the 95% confidence interval. A value given as a limit tells only on which side of the number the result lay.

As to “SAGGATRIRVLATNASGEKVELDIPQAIADAIAEALKQGKPIPPGPASVIAAFATSNGYDFEIVDISSAGGS [r8_159_TrMRF]”, the “folding stability dG unfold” value is 2.85 ± 0.093 kcal/mol in data set [1], 3.106 ± 0.031 kcal/mol in data set [2] and 2.02 ± 0.062 kcal/mol in data set [3].
As for “SAGGAVEITDISSKTVTEPVTFENGTVVPQERTAGTVTTTENGTPVATVPFTSEEELEEAIARALAESAGGS [r8_21_JUSTAS]”, the entries for the “folding stability dG unfold” value in data set [1], in data set [2] and in data set [3] were 0.869 ± 0.1 kcal/mol, 1.24 ± 0.034 kcal/mol and -0.276 ± 0.22 kcal/mol, respectively.
On to “SAGGAVEKNSNNPNTSPEKAKEIAEEIAEELKKEGHVPKSISFSEKENGKLTATIKIEDGKELTIGLSAGGS [r8_485_JUSTAS]”, for which the “folding stability dG unfold” value in data set [1] is less than -1 kcal/mol; in data set [2] it was -0.467 ± 0.17 kcal/mol; in data set [3] it was -0.343 ± 0.16 kcal/mol.
The matching figures for “SAGGAVYRNPATGEWYEPGMTEEEREARARAALPPPTVTITVTVTVVFEDNGTTVTATATVTLTVEGSAGGS [r16_387_TrROS_Hall]”: 3.44 ± 0.1 kcal/mol, 3.83 ± 0.12 kcal/mol and 2.97 ± 0.11 kcal/mol.
Turning to “SAGGDALKGLPPGAKVKVERVNGKLVVVVEKVEVKPPPKVTLTLPPGWKLTRLELTEDGTLKAELEPSAGGS [r16_103_TrROS_Hall]”, the “folding stability dG unfold” value in data set [1] stood at 1.79 ± 0.23 kcal/mol; in data set [2], 2.13 ± 0.068 kcal/mol; in data set [3], 1.4 ± 0.053 kcal/mol.
In the same order, the values of “SAGGDATIVLTDFPEDDPEARIRTARNLYRELKAAGPPLRINILTDTPLGREVADYLESEGIEVGLGSAGGS [r16_450_TrMRF]” are -0.33 ± 0.2 kcal/mol, -0.206 ± 0.26 kcal/mol and -0.828 ± 0.43 kcal/mol.
The matching figures for “SAGGDDKWKIEIDIQPHDDYWVITARIRDPNGKERERMFMMPPDNIKKILNELPPEIEDIEVHRVPNSAGGS [r16_298_TrROS]”: 2.53 ± 0.17 kcal/mol, 2.72 ± 0.045 kcal/mol and 2.11 ± 0.074 kcal/mol.
The matching figures for “SAGGDEIAKEIANHAREQGYKVEVKVERDEDGMVKIDVEMSMPNGRRVTFSITINPDGIEIQSIEVTPSAGG [r13_203_TrROS]”: 3.97 ± 0.15 kcal/mol, 4.41 ± 0.067 kcal/mol and 2.65 ± 0.12 kcal/mol.
On to “SAGGDKDNKPPIPTKTITFMLPYDSPEDAKDYAEEIARELFQEEGIPIKVTVQYNPESGWVWVTITIYSAGG [r13_517_TrROS]”, for which the results for the “folding stability dG unfold” value in data set [1], in data set [2] and in data set [3] were 4.32 ± 0.12 kcal/mol, 4.57 ± 0.075 kcal/mol and 3.49 ± 0.1 kcal/mol, respectively.
The matching figures for “SAGGDLEAKPFEITFVIKAKPFPTPDGRLVETPEKVFKLKVLVVRGPNETRLFVFDEDGNLLFTSNLSAGGS [r16_92_TrMRF]”: 3.39 ± 0.064 kcal/mol, 3.888 ± 0.022 kcal/mol and 2.37 ± 0.051 kcal/mol.
In the same order, the values of “SAGGDLIERVAKELMEKFPMKPGEPRPITIEIPYPDGYRIKVDIPVRVNPDNGEFRFKFDIKEIEPWSAGGS [r16_634_TrROS]” are 1.25 ± 0.13 kcal/mol, 1.43 ± 0.16 kcal/mol and 1.02 ± 0.052 kcal/mol.
In the same order, the values of “SAGGDPDEIKKVIITARIYRPDPDGNIHTATIPIIIEGPLDEVIEKVAKEIEEAFGTKIVEITVEKGSAGGS [r16_511_TrMRF]” are 1.36 ± 0.14 kcal/mol, 1.2 ± 0.07 kcal/mol and 1.54 ± 0.047 kcal/mol.
In the case of “SAGGDPETPTTITAPVDPATGTTTWVVNDGSSTSTIPSSLSLEELKKLGLTKAEPLPDGTLRFTILASAGGS [r8_382_JUSTAS]”, the “folding stability dG unfold” value came out at 0.495 ± 0.053 kcal/mol in data set [1], 0.494 ± 0.081 kcal/mol in data set [2] and 0.289 ± 0.022 kcal/mol in data set [3].
In the same order, the values of “SAGGDPGWVRVTAEIELDGKNLKIEWWYMPNGNYYYNIEFPNGKEIEIMIPMEPGDVEEFAEYIAKKLSAGG [r13_296_TrROS]” are 2.66 ± 0.11 kcal/mol, 2.838 ± 0.028 kcal/mol and 2.32 ± 0.069 kcal/mol.
Regarding “SAGGDPSATPVVVEFTLPDGARAVATTFPSGVVVARVFNPVTGRTTEVTVTVVPESATATVTVRPNPDSAGG [r13_822_TrMRF]”, the “folding stability dG unfold” value in data set [1] amounted to 1.02 ± 0.053 kcal/mol; in data set [2], 1.13 ± 0.067 kcal/mol; in data set [3], 0.762 ± 0.027 kcal/mol.
For the sequence “SAGGDVTIEWFPMSEEEMKKMMEEMPPNTIMIPFPGNGYFIPVRVPDDPEEADKIAEEIRKWLEQLPSAGGS [r16_311_TrROS]”, the “folding stability dG unfold” value was determined as 1.62 ± 0.063 kcal/mol in data set [1], 1.44 ± 0.024 kcal/mol in data set [2] and 1.81 ± 0.057 kcal/mol in data set [3].
In the same order, the values of “SAGGDVVRVRVRLRRFEIVGDRPVYRPVDIDILAEADGDPEAARRRAEREARRLAEEYGAEIEDIELFPSAG [r5_497_TrMRF]” are 2.4 ± 0.083 kcal/mol, 2.57 ± 0.04 kcal/mol and 2.15 ± 0.026 kcal/mol.
As for “SAGGEEELKKNPDLIVIKITIRNKETGEEIEELEIVLSKEELEELLETLRKLLPPGWEIVKVEIRKLPSAGG [r13_849_TrROS_Hall]”, the “folding stability dG unfold” value was 4 ± 0.3 kcal/mol in data set [1], 3.02 ± 0.14 kcal/mol in data set [2] and 4.11 ± 0.24 kcal/mol in data set [3].
Take “SAGGEEIEAEVVEVRTFTLENGFEVTTTLIRVDGKLILITSVKKTKNGKWEVVEVKELPLEELSPEELSAGG [r13_494_TrROS_Hall]”: the “folding stability dG unfold” value turned out to be 2.93 ± 0.14 kcal/mol in data set [1], 2.73 ± 0.035 kcal/mol in data set [2] and 3.35 ± 0.14 kcal/mol in data set [3].
Consider “SAGGEELARRLAEELRELGLEVEVVDVDLEEGKITIRVRPAPPPPPVTERRTRRRPDGREVTEERVLSAGGS [r8_318_TrROS_Hall]”, for which the results for the “folding stability dG unfold” value in data set [1], in data set [2] and in data set [3] were 0.214 ± 0.16 kcal/mol, 0.0369 ± 0.15 kcal/mol and 0.282 ± 0.21 kcal/mol, respectively.
In the same order, the values of “SAGGEELMKDHPNFIFITIEIRHPGGGKEKPKFMIMIPNNTPEELIDELRDFLPPGYKIKDVEIHYMDSAGG [r13_849_TrROS]” are 2.14 ± 0.17 kcal/mol, 1.72 ± 0.096 kcal/mol and 2.41 ± 0.13 kcal/mol.
The matching figures for “SAGGEEVILTLPDGSPVRVIPDEGTASFELPGYRVETEVLPDGRIRLTVRDPAAGALVRELDLGLLRSAGGS [r16_760_JUSTAS]”: 0.623 ± 0.039 kcal/mol, 0.789 ± 0.068 kcal/mol and 0.158 ± 0.039 kcal/mol.
In the same order, the values of “SAGGEEVKTIKVTLAFYNPETGELVAEVEATATLVDGKLVLTTTVTFRPAPAGEPVTVTVTVVEPEESAGGS [r16_327_TrROS_Hall]” are 3.39 ± 0.24 kcal/mol, 3.63 ± 0.13 kcal/mol and 2.93 ± 0.39 kcal/mol.
Take “SAGGEEVTIKLSDELRDLVPDAEIRVERLEDGTLRIEIRVRLPAPEPPEPVERREERRVEVRVEVRLESAGG [r13_129_TrROS_Hall]”: the entries for the “folding stability dG unfold” value in data set [1], in data set [2] and in data set [3] were 2.14 ± 0.13 kcal/mol, 2.22 ± 0.22 kcal/mol and 1.98 ± 0.16 kcal/mol, respectively.
The matching figures for “SAGGEGEILDKKEFTFPDNVKLEVYVFKVGDKYFVKVKTTITVPENPTKPKKPLKKITPEDIKKALEKSAGG [r13_760_TrMRF]”: 1.5 ± 0.5 kcal/mol, 1.88 ± 0.21 kcal/mol and 0.151 ± 0.33 kcal/mol.
Consider “SAGGEGKEDKKIKVLFINVPVDKPDLLLKLAKEIIEKKEYDIIIVDHPENYKALKEAFPEYDIPIILGSAGG [r13_353_TrMRF]”, for which the figures for the “folding stability dG unfold” value in data set [1], in data set [2] and in data set [3] were 3.29 ± 0.069 kcal/mol, 3.673 ± 0.022 kcal/mol and 2.04 ± 0.064 kcal/mol, respectively.
With “SAGGEIERDPNGWIRMTYTLPGFGYKIEITFRVPDNGMMQIEDIDIEPIPPVPPPPPPKYDPNGEWKYSAGG [r13_646_TrROS]”, the figures for the “folding stability dG unfold” value in data set [1], in data set [2] and in data set [3] were 2.02 ± 0.17 kcal/mol, 2.25 ± 0.041 kcal/mol and 1.64 ± 0.08 kcal/mol, respectively.
Turning to “SAGGEIKIKKSKDGKTLYIEIKIKAGEKVKLKLTITLPNGKKAEITSVEIIEKNGELYIKVEIKIKDSAGGS [r16_499_TrROS_Hall]”, the “folding stability dG unfold” value in data set [1] was 4.42 ± 0.42 kcal/mol; in data set [2], 4.67 ± 0.4 kcal/mol; in data set [3], 3.92 ± 0.28 kcal/mol.
The matching figures for “SAGGEKATVTVVYDPEKGYVVVPVDIPFLDENGKPKKLKLVFVLPASPEAEEAVKELAKELGLESVESAGGS [r8_381_TrMRF]”: 2.11 ± 0.2 kcal/mol, 2.38 ± 0.059 kcal/mol and 1.37 ± 0.1 kcal/mol.
The matching figures for “SAGGEKIKEALEKVPGLEIVKVEKKDGKVYIHIKAKSEEQRKKAAEALKKLPGIKEVKIEVIPEEELSAGGS [r16_671_TrROS_Hall]”: 3.03 ± 0.21 kcal/mol, 2.88 ± 0.064 kcal/mol and 3.28 ± 0.15 kcal/mol.
The matching figures for “SAGGEKIKLKVVIKVPKELKNLSKEEIEELLKKKLGPNYKITKVEIKVEKNENGEEYLVVEVEIEKESAGGS [r16_408_TrROS_Hall]”: 3.58 ± 0.23 kcal/mol, 3.37 ± 0.13 kcal/mol and 3.64 ± 0.21 kcal/mol.
As to “SAGGEKITAEELVEEIQKIFNENGMKPVAIEPMPDGGVFIHFKNPYMIMIDAEEGKIEIMPPEDMEDFSAGG [r13_717_TrROS]”, the “folding stability dG unfold” value in data set [1] came to 1.09 ± 0.27 kcal/mol; in data set [2] it was 1.49 ± 0.13 kcal/mol; in data set [3], 1.04 ± 0.068 kcal/mol.
In the same order, the values of “SAGGEKITIEVDGKKVTITKNEDGTITITIEHNGKVIKTITLPKNLEKITELTLTFNGKTYTITIEPSAGGS [r16_452_TrROS_Hall]” are 4.97 ± 0.11 kcal/mol, 5.013 ± 0.048 kcal/mol and 3.9 ± 0.13 kcal/mol.
In the same order, the values of “SAGGEKRYLVRVRAYYRFEEGERELDLEVEVTSPEEAKELLEKIATRLRKLYPDRIRIEVEIRPLEESAGGS [r16_475_TrMRF]” are 4.94 ± 0.14 kcal/mol, 5.1 ± 0.12 kcal/mol and 4.53 ± 0.17 kcal/mol.
The matching figures for “SAGGEKTLTVEYNPEDDYLTFTLTLTRPGYDPVTGKPREYKVTLTFTVPLNEATPEHVKLALEIYEKDSAGG [r13_980_TrMRF]”: 4.28 ± 0.56 kcal/mol, 4.71 ± 0.15 kcal/mol and 2.88 ± 0.13 kcal/mol.

Values taken from the supplement of paper PMC12764529.
